Consider two molecules from paper PMC8038949, “Structural basis for the DNA-binding activity of human ARID4B Tudor domain”.

Data set [1] addresses T1, ARID4B TD151 (Homo sapiens, UniProt Q4LE39 1-151).
T1 sequence: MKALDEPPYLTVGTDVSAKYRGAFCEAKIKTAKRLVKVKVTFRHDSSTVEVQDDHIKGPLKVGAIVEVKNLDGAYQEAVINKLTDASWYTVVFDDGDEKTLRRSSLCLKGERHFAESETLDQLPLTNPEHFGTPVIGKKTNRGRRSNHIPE
The data set is described as follows: ITC; 50 mM Tris-HCl pH 7.6, 50 mM NaCl (buffer A); ITC 25 C; EMSA 4 C, 12 uM DNA, 8% native gel in TBE; NMR titration by 1H-15N HSQC (temperature not stated for titration; buffer A also defined elsewhere as 20 mM phosphate, 100 mM NaCl, pH 7.0). The settings on record: protein: recombinant; chain copies: 3; 5' overhang 1 nt on each strand (17 bp paired). A general note: In ITC the heat of successive injections is recorded.

Data set [2] has as its target T2, ARID4A TD151 (Homo sapiens, UniProt P29374 4-151).
T2 sequence: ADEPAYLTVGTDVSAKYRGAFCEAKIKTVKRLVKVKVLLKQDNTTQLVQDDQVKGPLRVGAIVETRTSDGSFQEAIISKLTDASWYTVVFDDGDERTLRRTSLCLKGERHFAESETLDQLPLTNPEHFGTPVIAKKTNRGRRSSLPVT
The data set is described as follows: NMR titration; n = 3; 50 mM Tris-HCl pH 7.6, 50 mM NaCl (buffer A); ITC 25 C; EMSA 4 C, 12 uM DNA, 8% native gel in TBE; NMR titration by 1H-15N HSQC (temperature not stated for titration; buffer A also defined elsewhere as 20 mM phosphate, 100 mM NaCl, pH 7.0). The settings on record: protein: recombinant; 5' overhang 1 nt on each strand (17 bp paired). In general terms: In EMSA bound probe runs differently from free probe, usually more slowly.

Data set [3] deals with T1, ARID4B TD151. The data set is described as follows: NMR titration; n fixed 3; 50 mM Tris-HCl pH 7.6, 50 mM NaCl (buffer A); ITC 25 C; EMSA 4 C, 12 uM DNA, 8% native gel in TBE; NMR titration by 1H-15N HSQC (temperature not stated for titration; buffer A also defined elsewhere as 20 mM phosphate, 100 mM NaCl, pH 7.0). The following applies: protein: recombinant; chain copies: 3; 5' overhang 1 nt on each strand (17 bp paired).

For data set [4], the target named is T3, ARID4B TD121 (Homo sapiens, UniProt Q4LE39 1-121).
T3 sequence: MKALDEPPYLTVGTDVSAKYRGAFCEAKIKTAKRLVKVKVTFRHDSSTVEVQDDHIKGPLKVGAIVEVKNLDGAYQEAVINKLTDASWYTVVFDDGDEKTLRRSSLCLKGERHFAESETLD
The data set can be described thus: NMR titration; n fixed 5; text says ~110; 50 mM Tris-HCl pH 7.6, 50 mM NaCl (buffer A); ITC 25 C; EMSA 4 C, 12 uM DNA, 8% native gel in TBE; NMR titration by 1H-15N HSQC (temperature not stated for titration; buffer A also defined elsewhere as 20 mM phosphate, 100 mM NaCl, pH 7.0). The following applies: protein: recombinant; 5' overhang 1 nt on each strand (17 bp paired).

Data set [5] deals with T1, ARID4B TD151. The data set can be described thus: NMR titration; n fixed 2; 50 mM Tris-HCl pH 7.6, 50 mM NaCl (buffer A); ITC 25 C; EMSA 4 C, 12 uM DNA, 8% native gel in TBE; NMR titration by 1H-15N HSQC (temperature not stated for titration; buffer A also defined elsewhere as 20 mM phosphate, 100 mM NaCl, pH 7.0). The following applies: protein: recombinant; chain copies: 3; 5' overhang 1 nt on each strand (11 bp paired).

The target of data set [6] is T3, ARID4B TD121. The data set can be described thus: NMR titration; n fixed 3; 50 mM Tris-HCl pH 7.6, 50 mM NaCl (buffer A); ITC 25 C; EMSA 4 C, 12 uM DNA, 8% native gel in TBE; NMR titration by 1H-15N HSQC (temperature not stated for titration; buffer A also defined elsewhere as 20 mM phosphate, 100 mM NaCl, pH 7.0). The settings on record: protein: recombinant; 5' overhang 1 nt on each strand (11 bp paired).

B1: dsDNA1 (dsDNA)
DNA 1: CTCAGGTCAAAGGTCACG
DNA 2: TCGTGACCTTTGACCTGA
As for B1, the equilibrium dissociation constant (Kd) (commonly the free concentration of one partner at which half of the binding sites on the other are occupied at equilibrium, for simple one-to-one binding) in data set [1] turned out to be 27 ± 8 µM; in data set [2], 9.7 ± 0.9 µM; in data set [3], 22 µM; in data set [4] it was 111 ± 2 µM.

B2: dsDNA2 (dsDNA)
DNA 1: CTGTCAAAGGTG
DNA 2: TCACCTTTGACA
Take B2: the Kd in data set [5] is 79 ± 3 µM; in data set [6], 237 ± 7 µM.
